Measured values: patent US20220298260A1 (MYTHIC THERAPEUTICS, published 2022)

B1: MYT0617 (antibody, V domains shown)
VH: QVQLVQSGAEVVKPGASVKISCKASGYTFTGYFMNWVKQSPGQSLEWIGRIHPYDGHTFYNQKFQGKATLTVDKSSNTAHMELLSLTSEDFAVYYCTRYDGSRAMDYWGQGTTVTVSS
VL: DIVLTQSPLSLAVSLGQPAIISCKASQSVSFAGTSLMHWYHQKPGQQPRLLIYRASNLEAGVPDRFSGSGSKTDFTLTISPVEAEDAATYYCQQSREYPYTFGGGTKLEIK
notes: IgG
B2: MYT0622 (antibody, V domains shown)
VH: QVQLVQSGAEVVKPGASVKISCKASGYTFTGYFMNWVKQSPGQSLEWIGRIHPYDGDTFYNHKFQGKATLTVDKSSNTAHMELLSLTSEDFAVYYCTRYDGSRAMDYWGQGTTVTVSS
VL: DIVLTQSPLSLAVSLGQPAIISCKASQSVSFAGTSLMHWYHQKPGQQPRLLIYRASNLEAGVPDRFSGSGSKTDFTLTISPVEAEDAATYYCQQSREYPYTFGGGTKLEIK
notes: IgG
B3: MYT0624 (antibody, V domains shown)
VH: QVQLVQSGAEVVKPGASVKISCKASGYTFTGYFMNWVKQSPGQSLEWIGRIHPYDGDTFYNQKHQGKATLTVDKSSNTAHMELLSLTSEDFAVYYCTRYDGSRAMDYWGQGTTVTVSS
VL: DIVLTQSPLSLAVSLGQPAIISCKASQSVSFAGTSLMHWYHQKPGQQPRLLIYRASNLEAGVPDRFSGSGSKTDFTLTISPVEAEDAATYYCQQSREYPYTFGGGTKLEIK
notes: IgG
B4: MYT0620 (antibody, V domains shown)
VH: QVQLVQSGAEVVKPGASVKISCKASGYTFTGYFMNWVKQSPGQSLEWIGRIHPYDGDTFHNQKFQGKATLTVDKSSNTAHMELLSLTSEDFAVYYCTRYDGSRAMDYWGQGTTVTVSS
VL: DIVLTQSPLSLAVSLGQPAIISCKASQSVSFAGTSLMHWYHQKPGQQPRLLIYRASNLEAGVPDRFSGSGSKTDFTLTISPVEAEDAATYYCQQSREYPYTFGGGTKLEIK
notes: IgG
B5: MYT0621 (antibody, V domains shown)
VH: QVQLVQSGAEVVKPGASVKISCKASGYTFTGYFMNWVKQSPGQSLEWIGRIHPYDGDTFYHQKFQGKATLTVDKSSNTAHMELLSLTSEDFAVYYCTRYDGSRAMDYWGQGTTVTVSS
VL: DIVLTQSPLSLAVSLGQPAIISCKASQSVSFAGTSLMHWYHQKPGQQPRLLIYRASNLEAGVPDRFSGSGSKTDFTLTISPVEAEDAATYYCQQSREYPYTFGGGTKLEIK
notes: IgG
B6: MYT0618 (antibody, V domains shown)
VH: QVQLVQSGAEVVKPGASVKISCKASGYTFTGYFMNWVKQSPGQSLEWIGRIHPYDGDHFYNQKFQGKATLTVDKSSNTAHMELLSLTSEDFAVYYCTRYDGSRAMDYWGQGTTVTVSS
VL: DIVLTQSPLSLAVSLGQPAIISCKASQSVSFAGTSLMHWYHQKPGQQPRLLIYRASNLEAGVPDRFSGSGSKTDFTLTISPVEAEDAATYYCQQSREYPYTFGGGTKLEIK
notes: IgG
B7: MYT0623 (antibody, V domains shown)
VH: QVQLVQSGAEVVKPGASVKISCKASGYTFTGYFMNWVKQSPGQSLEWIGRIHPYDGDTFYNQHFQGKATLTVDKSSNTAHMELLSLTSEDFAVYYCTRYDGSRAMDYWGQGTTVTVSS
VL: DIVLTQSPLSLAVSLGQPAIISCKASQSVSFAGTSLMHWYHQKPGQQPRLLIYRASNLEAGVPDRFSGSGSKTDFTLTISPVEAEDAATYYCQQSREYPYTFGGGTKLEIK
notes: IgG
B8: MYT0619 (antibody, V domains shown)
VH: QVQLVQSGAEVVKPGASVKISCKASGYTFTGYFMNWVKQSPGQSLEWIGRIHPYDGDTHYNQKFQGKATLTVDKSSNTAHMELLSLTSEDFAVYYCTRYDGSRAMDYWGQGTTVTVSS
VL: DIVLTQSPLSLAVSLGQPAIISCKASQSVSFAGTSLMHWYHQKPGQQPRLLIYRASNLEAGVPDRFSGSGSKTDFTLTISPVEAEDAATYYCQQSREYPYTFGGGTKLEIK
notes: IgG

What follows are binders tested against T1, FOLR1 (R&D Systems, Cat #5646-FR) (human, UniProt P15328 25-233) (assay: BLI, IgG on anti-human Fc sensor, 50 nM FOLR1).
T1 construct: Bought soluble protein; also called Folate Receptor 1
T1 sequence (P15328 25-233 limits assumed): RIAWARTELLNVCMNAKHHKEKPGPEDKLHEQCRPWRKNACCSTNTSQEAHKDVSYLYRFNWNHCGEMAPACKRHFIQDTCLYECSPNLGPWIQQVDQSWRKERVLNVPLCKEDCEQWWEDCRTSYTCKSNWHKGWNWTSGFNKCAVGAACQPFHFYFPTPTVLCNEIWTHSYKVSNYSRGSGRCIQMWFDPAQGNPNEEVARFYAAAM

Binding result, binds:
B1, B2, B3, B4, B5, B6, B7, B8
